Measurements as given in patent US20260210939A1, “MODIFIED OLFACTORY RECEPTORS” (GIVAUDAN SA, priority 2022, published 2026).
Read-outs that look alike come from different tables or passages of the source.

Experiments:
[1] = molecular target: T1, OR2T4 (Homo sapiens, UniProt Q8NH00, D328E/G331D/M330K); settings: for ligand identification in sulfur odorant screen: OR2T4 with optimized C-terminus SEQ ID NO: 86; for % of the activation by the optimized sequence RNKEVKDALKRLLKRKCC: OR2T4 variant
T1 sequence (Q8NH00 with tags, fused parts or gaps D328E/M330K/G331D): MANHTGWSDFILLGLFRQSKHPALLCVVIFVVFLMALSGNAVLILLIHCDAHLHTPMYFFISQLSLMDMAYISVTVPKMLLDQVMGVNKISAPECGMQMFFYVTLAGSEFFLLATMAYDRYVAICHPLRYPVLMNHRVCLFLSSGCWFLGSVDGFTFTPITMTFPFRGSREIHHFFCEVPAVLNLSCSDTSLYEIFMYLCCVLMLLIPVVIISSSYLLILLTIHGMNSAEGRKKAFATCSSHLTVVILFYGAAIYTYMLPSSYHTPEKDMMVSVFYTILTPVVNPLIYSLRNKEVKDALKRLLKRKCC

[2] = molecular target: T2, OR5B12 (Homo sapiens, UniProt Q96R08, C141R); assay: CRE-luciferase assay, HEK293T cells expressing OR5B12 (wild-type / modified C-terminus); format: cell-based; settings: OR5B12 variant
T2 construct: Improved functional expression of modified OR-genes containing the truncated, optimized C-terminus; expressed in transfected cells; host or cells: HEK293T stably expressing human RTP1S(V227I) and RTP2(L220R)
T2 sequence (Q96R08 with tags, fused parts or gaps C141R): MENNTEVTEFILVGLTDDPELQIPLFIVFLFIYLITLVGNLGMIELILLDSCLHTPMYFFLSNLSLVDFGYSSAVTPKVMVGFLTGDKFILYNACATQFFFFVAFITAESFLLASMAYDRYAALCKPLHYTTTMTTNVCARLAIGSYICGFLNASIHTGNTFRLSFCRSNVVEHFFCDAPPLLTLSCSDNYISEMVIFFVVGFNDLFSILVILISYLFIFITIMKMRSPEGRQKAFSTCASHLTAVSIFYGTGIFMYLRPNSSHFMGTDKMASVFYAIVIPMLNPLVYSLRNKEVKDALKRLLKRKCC

[3] = molecular target: T3, OR7C1 (Homo sapiens, UniProt O76099, D296E/G302K/M297V/R299D/T295K/V126I); assay: CRE-luciferase assay, HEK293T cells expressing OR7C1 (wild-type / modified C-terminus); format: cell-based; settings: OR7C1 variant, 1 μM Ambermax
T3 construct: Improved functional expression of modified OR-genes containing the truncated, optimized C-terminus; expressed in transfected cells; host or cells: HEK293T stably expressing human RTP1S(V227I) and RTP2(L220R)
T3 sequence (O76099 with tags, fused parts or gaps V126I/T295K/D296E/M297V/R299D/G302K): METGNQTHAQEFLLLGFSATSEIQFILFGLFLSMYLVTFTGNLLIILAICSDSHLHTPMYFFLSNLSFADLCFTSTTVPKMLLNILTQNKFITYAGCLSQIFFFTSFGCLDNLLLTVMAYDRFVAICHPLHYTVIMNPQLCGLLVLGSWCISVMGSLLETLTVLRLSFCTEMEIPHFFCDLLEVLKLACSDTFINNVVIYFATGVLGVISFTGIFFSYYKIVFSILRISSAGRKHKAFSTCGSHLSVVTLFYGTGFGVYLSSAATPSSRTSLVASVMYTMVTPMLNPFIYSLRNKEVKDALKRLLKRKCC
Description: To test for possible variants of the sequence […]CC (SEQ ID NO: 86) leading to similar improved functional expression, different point mutations were introduced into the first 16 amino acids of this sequence (corresponding to […], SEQ ID NO: 10) and the variants were fused after the TM7 with OR7C1. […] The test concentrations were selected to fall into the range of partial activity of the wild-type sequence.

[4] = 10 μM Cyclopentanethiol, 30 μM copper
[5] = 31 μM Cyclopentanethiol, 30 μM copper
[6] = 4 μM 2-methyl-3-tetrahydrofuranethiol
[7] = 8 μM 2-methyl-3-tetrahydrofuranethiol

Compound	ligand identification in sulfur odorant screen [1]	% of the activation by the optimized sequence RNKEVKDALKRLLKRKCC ([2]; 31 μM Hedione HC) [%]	% of the activation by the optimized sequence RNKEVKDALKRLLKRKCC ([2]; 62.5 μM Hedione HC) [%]	% of the activation by the optimized sequence RNKEVKDALKRLLKRKCC [1, 4] [%]	% of the activation by the optimized sequence RNKEVKDALKRLLKRKCC [1, 5] [%]	% of the activation by the optimized sequence RNKEVKDALKRLLKRKCC [3] [%]	% of the activation by the optimized sequence RNKEVKDALKRLLKRKCC [1, 6] [%]	% of the activation by the optimized sequence RNKEVKDALKRLLKRKCC [1, 7] [%]
CC1OCCC1S (stereo not shown) [2-methyl-3-tetrahydrofuranthiol, reference compound]	good ligands	–	–	–	–	–	–	–
CCCSSCCC [dipropyl disulfide, reference compound]	good ligands	–	–	–	–	–	–	–
SEQ ID NO: 10 (RNKEVKDALKRLLKRK; source 1..16: note = C-terminal domain sequence)	–	0	0	25.3	25.2	89.5	–	–
SEQ ID NO: 114 (RNKEVKRAIKRLLKRKCC; source 1..18: note = C-terminal domain sequence)	–	317.8	195.1	–	–	262.4	108.8	116.6
SEQ ID NO: 115 (RNKEVKKAIKRLLKRKCC; source 1..18: note = C-terminal domain sequence)	–	349.2	242.5	–	–	–	103.1	115.2
SEQ ID NO: 116 (RNKEVKRAIKRLFKRKCC; source 1..18: note = C-terminal domain sequence)	–	433.2	303.9	–	–	393.9	63.3	77.0
SEQ ID NO: 118 (RNKEVKRAIRKLLKRKCC; source 1..18: note = C-terminal domain sequence)	–	126.2	136.1	–	–	288.9	80.6	98.4
SEQ ID NO: 121 (RNKEVKRAIKRLLKRKCR; source 1..18: note = C-terminal domain sequence)	–	342.8	242.1	–	–	346.4	139.9	150.6
SEQ ID NO: 122 (RNKEVKKAIKRLLKRKCR; source 1..18: note = C-terminal domain sequence)	–	331.3	222.3	–	–	258.8	97.3	102.0
SEQ ID NO: 133 (RNKEVKDALKRLLKRKCRR; source 1..19: note = C-terminal domain sequence)	–	–	–	–	–	188.9	101.4	110.0
SEQ ID NO: 146 (RNKEVKDALKRLLKRKCCR; source 1..19: note = C-terminal domain sequence)	–	619.88	248.52	–	–	–	–	–
SEQ ID NO: 147 (RNKEVKDALKRLLKRKCCG; source 1..19: note = C-terminal domain sequence)	–	394.57	300.08	–	–	–	–	–
SEQ ID NO: 148: printed for RNKEVKDALKRLLKRKCRR in Table 6	–	181.2	189.0	–	–	–	–	–
SEQ ID NO: 149 (RNKEVKDALKRLLKRKCRRR; source 1..20: note = C-terminal domain sequence)	–	254.8	231.7	–	–	265.3	108.0	135.7
SEQ ID NO: 150 (RNKEVKDALKRLLKRKCRKK; source 1..20: note = C-terminal domain sequence)	–	182.3	145.7	–	–	196.0	94.8	96.5
SEQ ID NO: 151 (RNKEVKDALKRLLKRKCCRR; source 1..20: note = C-terminal domain sequence)	–	240.6	229.5	–	–	–	–	–
SEQ ID NO: 198 (RNKEVKDALKRLLKRKC; source 1..17: note = C-terminal domain sequence)	–	0	0	37.7	63.5	137.7	–	–
SEQ ID NO: 219 (RNKEVKDALKRLLKRKCCRRRR; source 1..22: note = C-terminal domain sequence)	–	244.3	239.6	–	–	–	–	–
SEQ ID NO: 220 (RNKEVKKAIKRLLKRKCCRRR; source 1..21: note = C-terminal domain sequence)	–	1092.9	922.2	–	–	–	76.6	61.9
SEQ ID NO: 221 (RNKEVKKAIKRLFKRKCCRRR; source 1..21: note = C-terminal domain sequence)	–	1032.2	676.0	–	–	498.6	103.1	130.4
